Here are results for 1 molecule from PMC5628483, “Soluble polymorphic bank vole prion proteins induced by co-expression of quiescin sulfhydryl oxidase in E. coli and their aggregation behaviors” (Microbial Cell Factories, 2017).

As a reminder, the Kd is the free concentration of one partner at which half of the binding sites on the other are occupied at equilibrium, for simple one-to-one binding.

The target of assay [1] is full-length recombinant bank vole prion protein with isoleucine at residue 109 (rBVPrP-109I) (bank vole (Myodes glareolus), UniProt Q8VHV5 23-231, 109I). In words: SPR. The settings on record: both partners purified.
In assay [2] the target is full-length recombinant bank vole prion protein with methionine at residue 109 (rBVPrP-109M) (bank vole (Myodes glareolus), UniProt Q8VHV5 23-231). In words: SPR. To be noted: both partners purified.

B1: Quiescin sulfhydryl oxidase (QSOX) (enzyme)
chain: APRSALYSPSDPLTLLQADTVRGAVLGSRSAWAVEFFASWCGHCIAFAPTWKALAEDVKAWRPALYLAALDCAEETNSAVCRDFNIPGFPTVRFFKAFTKNGSGAVFPVAGADVQTLRERLIDALESHHDTWPPACPPLEPAKLEEIDGFFARNNEEYLALIFEKGGSYLGREVALDLSQHKGVAVRRVLNTEANVVRKFGVTDFPSCYLLFRNGSVSRVPVLMESRSFYTAYLQRLSGLTREAAQTTVAPTTANKIAPTVWKLADRSKIYMADLESALHYILRIEVGRFPVLEGQRLVALKKFVAVLAKYFPGRPLVQNFLHSVNEWLKRQKRNKIPYSFFKTALDDRKEGAVLAKKVNWIGCQGSEPHFRGFPCSLWVLFHFLTVQAARQNVDHSQEAAKAKEVLPAIRGYVHYFFGCRDCASHFEQMAAASMHRVGSPNAAVLWLWSSHNRVNARLAGAPSEDPQFPKVQWPPRELCSACHNERLDVPVWDVEATLNFLKAHFSPSNIILDFPAAGSAARRDVQNVAAAPELAMGALELESRNSTLDPGKPEMMKSPTNTTPHVPAEGPELI
As to B1, the Kd amounted to 11 nM in assay [1] and 23 nM in assay [2].
